Reference: publication PMC4702668

Assays:
[1] = molecular target: BG505 SOSIP.664 trimer, unmodified (HIV-1); assay: cross-linking
[2] = molecular target: B41 SOSIP.664 trimer (HIV-1); assay: cross-linking

Substance | stoichiometry N [1] | stoichiometry N [2]
BG505 SOSIP.664 trimer, unmodified (complex) | 3 | –
B41 SOSIP.664 trimer (complex) | – | 3
